Test results published in PMC2915760.

Substrate: O=[N+]([O-])c1ccc(OP(=O)(O)O)cc1
Test: purified protein

B1: Lyp (lymphoid-specific protein tyrosine phosphatase, PTPN22), wild-type (Homo sapiens) (protein)
chain: MDQREILQKFLDEAQSKKITKEEFANEFLKLKRQSTKYKADKTYPTTVAEKPKNIKKNRYKDILPYDYSRVELSLITSDEDSSYINANFIKGVYGPKAYIATQGPLSTTLLDFWRMIWEYSVLIIVMACMEYEMGKKKCERYWAEPGEMQLEFGPFSVSCEAEKRKSDYIIRTLKVKFNSETRTIYQFHYKNWPDHDVPSSIDPILELIWDVRCYQEDDSVPICIHCSAGCGRTGVICAIDYTWMLLKDGIIPENFSVFSLIREMRTQRPSLVQTQEQYELVYNAVLELFKRQM
Km: 4.86 ± 0.39 mM
